# Measurements taken from paper PMC2190830.
# Target: human high affinity Fc gamma receptor, Fc gamma RI (human) (UniProt P12314)
# Experiment: enzymatic cell-binding assay
# Chain of UniProt P12314 (P12314 16-374): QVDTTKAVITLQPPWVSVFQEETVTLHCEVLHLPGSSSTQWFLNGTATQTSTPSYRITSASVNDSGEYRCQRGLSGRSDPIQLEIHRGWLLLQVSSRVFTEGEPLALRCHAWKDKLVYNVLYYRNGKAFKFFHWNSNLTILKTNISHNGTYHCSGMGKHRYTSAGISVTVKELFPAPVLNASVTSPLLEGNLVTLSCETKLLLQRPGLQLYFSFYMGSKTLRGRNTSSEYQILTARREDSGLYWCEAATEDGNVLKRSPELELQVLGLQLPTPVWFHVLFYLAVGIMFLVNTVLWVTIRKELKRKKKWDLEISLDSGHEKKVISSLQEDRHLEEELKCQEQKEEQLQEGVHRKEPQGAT
Substance,Ka [M⁻¹],fold reduction in binding activity relative to IgG1 and IgG3 [fold]
exon-exchange chimeric anti-dansyl IgG 2232 (IgG2 with a gamma 3 CH2 domain) (antibody),2.8e+08,–
chimeric anti-dansyl IgG3 bearing a hinge encoded by the first (unique) gamma 3 hinge exon (IgG3h1) (antibody),2.2e+08,–
"chimeric anti-dansyl IgG4(Leu[234], Pro[331]) (antibody)",1.3e+08,–
chimeric anti-dansyl IgG4(Leu[234]) (antibody),3.8e+08,–
CH1-deleted chimeric anti-dansyl IgG3 (IgG3 ΔCH1) (antibody),2e+08,–

# Second part, the substance after the results:
Ka [M⁻¹],fold reduction in binding activity relative to IgG1 and IgG3 [fold],Substance
1.8e+09,–,exon-exchange chimeric anti-dansyl IgG 3332 (IgG3 bearing the CH3 domain of IgG2) (antibody)
3.1e+08,–,chimeric anti-dansyl IgG3(Ser[331]) (antibody)
–,10,"chimeric anti-dansyl IgG4 (murine variable regions, human IgG4 constant region, human kappa light chain) (antibody)"
1.2e+09,–,"chimeric anti-dansyl IgG3 (murine variable regions, human IgG3 constant region, human kappa light chain) (antibody)"
